According to patent publication US20030109691A1:

What was measured:
fibrinogen = fibrinogen (UniProt P02671); assay: SPR (BIAcore), fibrinogen on CM5 chip, A domain flowed; linear transformation, mean±SD, n=2
CD54 (ICAM-1) = CD54 (ICAM-1) (UniProt P05362); assay: SPR (BIAcore), CD54 on CM5 chip, A domain flowed; linear transformation, mean±SD, n=2
complement iC3b [1] = biological target: complement iC3b (UniProt P01024); assay: SPR (BIAcore), iC3b on CM5 chip, A domain flowed; linear transformation, mean±SD, n=2
complement iC3b [2] = biological target: complement iC3b (UniProt P01024); assay: SPR (BIAcore), iC3b on CM5 chip, A domain flowed

Chain of fibrinogen (P02671 20-629 limits assumed, chain 1 of 3): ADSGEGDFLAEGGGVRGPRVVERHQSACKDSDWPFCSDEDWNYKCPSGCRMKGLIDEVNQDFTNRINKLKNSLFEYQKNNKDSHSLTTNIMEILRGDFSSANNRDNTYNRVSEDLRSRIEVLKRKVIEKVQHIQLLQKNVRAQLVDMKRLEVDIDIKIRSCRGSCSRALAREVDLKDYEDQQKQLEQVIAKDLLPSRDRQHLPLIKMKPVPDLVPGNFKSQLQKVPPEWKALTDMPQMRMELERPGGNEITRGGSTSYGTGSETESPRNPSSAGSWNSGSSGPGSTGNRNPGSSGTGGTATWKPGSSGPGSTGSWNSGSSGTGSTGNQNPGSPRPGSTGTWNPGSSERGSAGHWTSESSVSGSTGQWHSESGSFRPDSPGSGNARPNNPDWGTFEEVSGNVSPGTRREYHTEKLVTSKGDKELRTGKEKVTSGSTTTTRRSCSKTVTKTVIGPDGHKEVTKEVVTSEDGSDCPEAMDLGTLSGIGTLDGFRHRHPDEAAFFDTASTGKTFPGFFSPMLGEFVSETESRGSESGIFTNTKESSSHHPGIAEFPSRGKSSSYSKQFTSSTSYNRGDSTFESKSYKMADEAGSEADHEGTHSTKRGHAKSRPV
Chain of fibrinogen (P02675 31-491 limits assumed, chain 2 of 3, further chain): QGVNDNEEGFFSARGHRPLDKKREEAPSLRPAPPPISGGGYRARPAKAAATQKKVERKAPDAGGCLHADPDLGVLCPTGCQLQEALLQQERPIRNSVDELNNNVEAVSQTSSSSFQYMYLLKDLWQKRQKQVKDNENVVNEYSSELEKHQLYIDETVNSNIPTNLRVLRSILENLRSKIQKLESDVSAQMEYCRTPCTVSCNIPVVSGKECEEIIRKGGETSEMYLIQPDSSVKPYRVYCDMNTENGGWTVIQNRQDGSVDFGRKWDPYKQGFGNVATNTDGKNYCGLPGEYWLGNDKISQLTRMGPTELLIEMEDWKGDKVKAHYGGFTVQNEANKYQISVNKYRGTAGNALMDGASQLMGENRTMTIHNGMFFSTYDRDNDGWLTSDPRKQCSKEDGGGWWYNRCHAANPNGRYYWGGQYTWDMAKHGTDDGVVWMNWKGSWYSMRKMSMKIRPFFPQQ
Chain of fibrinogen (P02679 other isoform, or with tags, fused parts or gaps limits assumed, chain 3 of 3, further chain): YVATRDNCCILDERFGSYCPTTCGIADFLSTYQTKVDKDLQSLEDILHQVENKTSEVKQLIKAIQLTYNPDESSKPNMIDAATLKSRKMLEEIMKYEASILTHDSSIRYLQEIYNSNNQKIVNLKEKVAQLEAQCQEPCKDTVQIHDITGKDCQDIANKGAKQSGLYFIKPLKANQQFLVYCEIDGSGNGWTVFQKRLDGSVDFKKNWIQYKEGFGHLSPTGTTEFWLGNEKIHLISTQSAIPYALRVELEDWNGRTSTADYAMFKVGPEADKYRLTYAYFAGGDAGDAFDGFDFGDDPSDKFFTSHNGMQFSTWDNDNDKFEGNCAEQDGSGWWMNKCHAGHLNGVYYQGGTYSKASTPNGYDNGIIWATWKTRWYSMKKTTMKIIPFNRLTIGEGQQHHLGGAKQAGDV
Chain of CD54 (ICAM-1) (P05362 28-480 limits assumed): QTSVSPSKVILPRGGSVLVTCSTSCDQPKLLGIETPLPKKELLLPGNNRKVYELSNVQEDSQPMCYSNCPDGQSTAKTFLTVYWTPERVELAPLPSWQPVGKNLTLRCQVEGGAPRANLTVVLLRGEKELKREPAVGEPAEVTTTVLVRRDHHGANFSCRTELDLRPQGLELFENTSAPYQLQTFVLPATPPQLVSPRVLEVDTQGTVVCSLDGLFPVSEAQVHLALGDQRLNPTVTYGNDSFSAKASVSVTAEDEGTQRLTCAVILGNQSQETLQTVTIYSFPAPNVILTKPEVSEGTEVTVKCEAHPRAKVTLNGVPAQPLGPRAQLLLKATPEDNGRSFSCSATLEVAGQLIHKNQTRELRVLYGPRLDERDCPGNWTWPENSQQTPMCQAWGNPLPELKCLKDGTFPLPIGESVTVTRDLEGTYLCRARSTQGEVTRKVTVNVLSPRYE

Row | Substance | Kd (fibrinogen) [nM] | Kd (CD54 (ICAM-1)) [nM] | Kd (complement iC3b [1]) [nM] | Kd (complement iC3b [2]) [nM]
1 | variant CD11b A domain consisting of amino acids E123 to K315 (11bA^123-315) (from UniProt P11215 139-331) (receptor) | 250 | 220 | 460 | 
2 | variant CD11b A domain with an Ile to Gly change at residue 316 (11bA^I→G) (from UniProt P11215 139-337) (receptor) |  |  |  | 660
